This is an account of results in PMC9673926, “Nucleotide binding as an allosteric regulatory mechanism for Akkermansia muciniphila β-N-acetylhexosaminidase Am2136” (Gut Microbes, 2022).

Series [1] has as its target T1, Am2136 WT (Akkermansia muciniphila, UniProt B2UPR7).
T1 construct: The coding region (residue Q20-L756) of Am2136 without signal peptide was based on UniProt; 6XHis (N); made in house; host or cells: E. coli BL21 (DE3)
Nature of the series: Nucleotide binding affinity by intrinsic fluorescence. The settings on record: Am2136 WT; fluorescence ex 286 nm/em 336 nm. The method, then:
The nucleotide binding ability was determined on Fluorescence Spectrometer Duetta (HORIBA) by measuring the change of peak intensity. The fluorescence was excited at 286 nm and emitted at 336 nm. And the measurement was processed under 400 V voltage with 2.5 nm excitation slit and 5 nm emission slit. […] The sample was incubated at 4°C for 5 min before testing.

In series [2] the target is T1, Am2136 WT. The series is described as follows: Enzyme activity assay (pNP-β-GlcNAc hydrolysis) regulated by nucleotides. The class given is biochemical. The settings on record: WT; 1 mM nucleotide; substrate pNP-β-GlcNAc; 37°C.
Substrate in series [3]: CC(=O)N[C@H]1[C@H](Oc2ccc([N+](=O)[O-])cc2)O[C@H](CO)[C@@H](O)[C@@H]1O
Nature of the series: Release of 4-nitrophenolate from pNP-β-GlcNAc (0.125-4 mM) followed at 405 nm for 5 min with 2 μM enzyme in 25 mM Tris pH 8.0, 150 mM NaCl at 37 °C, no nucleotide. The format is biochemical. An excerpt:
All experiments were repeated three times.

Substrate in series [4]: CC(=O)N[C@H]1[C@H](Oc2ccc([N+](=O)[O-])cc2)O[C@H](CO)[C@@H](O)[C@@H]1O
The series is described as follows: purified protein, by the assay type. The settings on record: pH 8.0.

Positions count from the first letter of the chain named. Names and notes keep the numbering of the source.

As usually defined, the Kd is the equilibrium constant for the complex coming apart. Low values mean tighter binding, high ones weaker binding. For orientation: Vmax means the rate approached at saturating substrate. Turning to `Nc1ncnc2c1ncn2[C@@H]1O[C@H](COP(=O)(O)OP(=O)(O)O)[C@@H](O)[C@H]1O` [ADP], binding at Am2136 WT [1] was characterised by a dissociation constant (Kd) of 255 ± 4.98 µM. Besides, the maximal velocity (Vmax) on Am2136 WT [2] is 422 ± 6 µmol/min.

At Am2136 WT [1], `Nc1ncnc2c1ncn2[C@@H]1O[C@H](COP(=O)(O)OP(=O)(O)OP(=O)(O)O)[C@@H](O)[C@H]1O` [ATP] showed a Kd of 245 ± 5.99 µM. Also, the Vmax at Am2136 WT [2] came to 442 ± 9 µmol/min.

On to `Nc1ccn([C@@H]2O[C@H](COP(=O)(O)OP(=O)(O)O)[C@@H](O)[C@H]2O)c(=O)n1` [CDP], for which binding at Am2136 WT [1] was characterised by a dissociation constant (Kd) of 157 ± 3.89 µM. Further, the maximum rate (Vmax) on Am2136 WT [2] was determined as 435 ± 6 µmol/min.

`Nc1ccn([C@@H]2O[C@H](COP(=O)(O)OP(=O)(O)OP(=O)(O)O)[C@@H](O)[C@H]2O)c(=O)n1` [CTP] gave an equilibrium dissociation constant (Kd) at Am2136 WT [1] of 167 ± 5.91 µM. The Vmax on Am2136 WT [2] was 436 ± 7 µmol/min.

In turn, `Nc1nc2c(ncn2[C@@H]2O[C@H](COP(=O)(O)OP(=O)(O)OP(=O)(O)O)[C@@H](O)[C@H]2O)c(=O)[nH]1` [GTP] had a Kd on Am2136 WT [1] of 123 ± 3.76 µM. The Vmax at Am2136 WT [2] is 449 ± 7 µmol/min.

The molecule `O=c1ccn([C@@H]2O[C@H](COP(=O)(O)OP(=O)(O)O)[C@@H](O)[C@H]2O)c(=O)[nH]1` [UDP] showed a dissociation constant Kd on Am2136 WT [1] of 179 ± 7.71 µM. Moreover, the Vmax at Am2136 WT [2] was 429 ± 9 µmol/min.

On Am2136 WT [1], `O=c1ccn([C@@H]2O[C@H](COP(=O)(O)OP(=O)(O)OP(=O)(O)O)[C@@H](O)[C@H]2O)c(=O)[nH]1` [UTP] registered a Kd of 199 ± 3.66 µM. In addition, on Am2136 WT [2], the Vmax amounted to 439 ± 7 µmol/min.

B1: Δ D717-K727 (Akkermansia muciniphila ATCC BAA-835; DEL717-727) (protein)
chain: QDAKQIADSLSIPPVKAGAKQLPMPSVSGAQIKLLGADYEQLVNSKGKIAPVISDTPVNVSFKVTKDGKEAVSKDYEIMLQAPQAAQGNPKPRIIPEILQWKGGQGEYKLGNTVTIACPDKELGKLFAADMEDVLGKKVKLVAPGAKADISLSLLKGGNLGREGYRLQIARDGVRLGAAAPTGLFWGTRTLLQMLRQTPGSVPCGTAVDFPRYQLRGFMLDVARTPYPLSYLKDVIRTMAWYKMNDLHLVINNNYIFHEHYVDNGHDPFKESYAAFRLESKMKGKDGTPLTARDLFYTKKEFADLVSYARKYGVNIVPEFDTPGHALSFTRLRPDLIYKGPMNHEKRRCEMLDAANPETIDLVSKVFDEYMLKDPKLGRPVFADCGVVHVGADEFYGDKEDYRHFANAVLTHALKRGYTPRIWGSLSAKPGKTPVVSKGVQMNLWSTGWMKAWEAVNQGYDVINTNDGALYIVPFAGYYRMDRNHKGLYNNWIPNRIGNETLPSGHPQLLGGTFAVWNDETDIMHTGYAPYDIWGIISGSMDVLSQKLWGTAKAPDTFEQHRELVSSIGNAPRTNPLHKWKDSQPLTVKPSSLPQKLDKPALGPNYRLTMELELTAAPEGKEQVLLAAPEGELLAVMKDGTVGFRRDDSLEFSFGAKLPVGKKVKVEIVGEPEKTSLLLDGEPAGTAVLKNFSDKSKVHRSTFILPLKELGSSFQGKVFHMNVQPL
notes: residues Q20-L756 without signal peptide, N-terminal 6xHis-tag; loop D717-K727 deleted
The Km is the concentration of substrate that gives half-maximal velocity. Usually kcat/Km stands for the turnover number divided by the Michaelis constant. For the molecule B1, in series [3], the Km stood at 6560 ± 410 µM, the Vmax was 144 µmol/min and the kcat/Km is 11000 ± 1000 M⁻¹ s⁻¹.

B2: Am2136 WT (Akkermansia muciniphila ATCC BAA-835) (protein)
chain: QDAKQIADSLSIPPVKAGAKQLPMPSVSGAQIKLLGADYEQLVNSKGKIAPVISDTPVNVSFKVTKDGKEAVSKDYEIMLQAPQAAQGNPKPRIIPEILQWKGGQGEYKLGNTVTIACPDKELGKLFAADMEDVLGKKVKLVAPGAKADISLSLLKGGNLGREGYRLQIARDGVRLGAAAPTGLFWGTRTLLQMLRQTPGSVPCGTAVDFPRYQLRGFMLDVARTPYPLSYLKDVIRTMAWYKMNDLHLVINNNYIFHEHYVDNGHDPFKESYAAFRLESKMKGKDGTPLTARDLFYTKKEFADLVSYARKYGVNIVPEFDTPGHALSFTRLRPDLIYKGPMNHEKRRCEMLDAANPETIDLVSKVFDEYMLKDPKLGRPVFADCGVVHVGADEFYGDKEDYRHFANAVLTHALKRGYTPRIWGSLSAKPGKTPVVSKGVQMNLWSTGWMKAWEAVNQGYDVINTNDGALYIVPFAGYYRMDRNHKGLYNNWIPNRIGNETLPSGHPQLLGGTFAVWNDETDIMHTGYAPYDIWGIISGSMDVLSQKLWGTAKAPDTFEQHRELVSSIGNAPRTNPLHKWKDSQPLTVKPSSLPQKLDKPALGPNYRLTMELELTAAPEGKEQVLLAAPEGELLAVMKDGTVGFRRDDSLEFSFGAKLPVGKKVKVEIVGEPEKTSLLLDGEPAGTAVLKNFSDKSKDFSDKFKHRPKVHRSTFILPLKELGSSFQGKVFHMNVQPL
Turning to B2, the figures for the Km in series [4] and in series [4] (37.0 °C) were 1530 ± 80 µM and 1460 ± 50 µM, respectively.

B3: D57A+E59A+Q60A (Akkermansia muciniphila ATCC BAA-835; D57A/E59A/Q60A) (protein)
chain: B2 chain with D38A, E40A, Q41A
notes: residues Q20-L756 without signal peptide, N-terminal 6xHis-tag
For the molecule B3, in series [3], the Km is 1410 ± 60 µM, the Vmax turned out to be 432 µmol/min and the catalytic efficiency (kcat/Km) was 153000 ± 3000 M⁻¹ s⁻¹.

B4: E649A (Akkermansia muciniphila ATCC BAA-835; E649A) (protein)
chain: B2 chain with E630A
As for B4, the Km in series [4] (37.0 °C) came to 1450 ± 90 µM.

B5: Y415A (Akkermansia muciniphila ATCC BAA-835; Y415A) (protein)
chain: B2 chain with Y396A
notes: as for B3
As to B5, in series [3], the Km was 2320 ± 80 µM, the Vmax came out at 399 µmol/min and the kcat/Km was determined as 86000 ± 1000 M⁻¹ s⁻¹.

B6: T545A+G546A (Akkermansia muciniphila ATCC BAA-835; G546A/T545A) (protein)
chain: B2 chain with T526A, G527A
notes: as for B3
For B6, in series [3], the Km is 3660 ± 690 µM, the Vmax came to 264 µmol/min and the catalytic efficiency (kcat/Km) was determined as 36000 ± 5000 M⁻¹ s⁻¹.

B7: Y550A (Akkermansia muciniphila ATCC BAA-835; Y550A) (protein)
chain: B2 chain with Y531A
Turning to B7, the Km in series [4] (37.0 °C) came out at 1520 ± 40 µM.
